Measured values from paper PMC2756588.

Experiments:
Assay in all cases: SPOT array
Bem1-1, P29366 = conditions: median of control spots 4282
Lsb3, P43603 = target: T1, Lsb3, P43603; conditions: median of control spots 406
T1 sequence (P43603 385-451, looked up): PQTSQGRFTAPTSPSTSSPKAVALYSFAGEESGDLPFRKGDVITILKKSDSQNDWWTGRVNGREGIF

Sho1, P40073 = conditions: median of control spots 1148
Bud14, P27637 = target: T2, Bud14, P27637; conditions: median of control spots 956
T2 sequence (P27637 247-328, looked up): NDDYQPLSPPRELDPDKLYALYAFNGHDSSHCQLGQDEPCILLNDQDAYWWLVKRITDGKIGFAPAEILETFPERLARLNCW

Myo3, P36006 = conditions: median of control spots 468
Sla1-3, P32790 = target: T3, Sla1-3, P32790; conditions: median of control spots 5475
T3 sequence (P32790 344-424, looked up): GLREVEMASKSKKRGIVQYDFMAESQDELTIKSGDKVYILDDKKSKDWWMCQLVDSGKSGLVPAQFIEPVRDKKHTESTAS

Bbc1, P47068 = target: T4, Bbc1, P47068; conditions: median of control spots 796
T4 sequence (P47068 1-78, looked up): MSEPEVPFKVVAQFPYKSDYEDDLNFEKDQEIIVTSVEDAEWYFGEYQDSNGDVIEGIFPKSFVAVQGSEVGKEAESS

Hof1, Q05080 = target: T5, Hof1, Q05080; conditions: median of control spots 4086
T5 sequence (Q05080 590-669, looked up): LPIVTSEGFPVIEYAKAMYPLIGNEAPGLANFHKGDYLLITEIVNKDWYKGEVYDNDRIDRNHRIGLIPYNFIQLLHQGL

Myo5, Q04439 = target: T6, Myo5, Q04439; conditions: median of control spots 471
T6 sequence (Q04439 1072-1160, looked up): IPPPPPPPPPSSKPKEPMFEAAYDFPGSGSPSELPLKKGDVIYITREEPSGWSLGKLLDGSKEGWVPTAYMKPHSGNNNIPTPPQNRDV

Lsb1, P53281 = target: T7, Lsb1, P53281; conditions: median of control spots 388
T7 sequence (P53281 45-122, looked up): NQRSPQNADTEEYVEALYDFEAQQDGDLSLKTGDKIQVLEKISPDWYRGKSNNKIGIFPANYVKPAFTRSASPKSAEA

Pex13, P80667 = target: T8, Pex13, P80667; conditions: median of control spots 1341
T8 sequence (P80667 295-386, looked up): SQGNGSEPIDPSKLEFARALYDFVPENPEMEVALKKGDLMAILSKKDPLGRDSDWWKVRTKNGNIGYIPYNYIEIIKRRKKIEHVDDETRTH

Bzz1-2, P38822 = target: T9, Bzz1-2, P38822; conditions: median of control spots 4538
T9 sequence (P38822 568-633, looked up): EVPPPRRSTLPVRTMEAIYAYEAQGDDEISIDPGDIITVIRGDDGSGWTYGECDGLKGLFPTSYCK

Boi2, P39969 = target: T10, Boi2, P39969; conditions: median of control spots 1161
T10 sequence (P39969 32-116, looked up): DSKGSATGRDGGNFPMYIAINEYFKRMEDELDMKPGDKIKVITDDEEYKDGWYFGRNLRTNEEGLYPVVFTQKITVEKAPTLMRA

Bzz1-1, P38822 = target: T11, Bzz1-1, P38822; conditions: median of control spots 4446
T11 sequence (P38822 478-572, looked up): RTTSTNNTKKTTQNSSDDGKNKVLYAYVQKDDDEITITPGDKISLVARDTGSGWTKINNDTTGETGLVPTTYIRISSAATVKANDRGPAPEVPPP

Boi1, P38041 = target: T12, Boi1, P38041; conditions: median of control spots 1162
T12 sequence (P38041 1-86, looked up): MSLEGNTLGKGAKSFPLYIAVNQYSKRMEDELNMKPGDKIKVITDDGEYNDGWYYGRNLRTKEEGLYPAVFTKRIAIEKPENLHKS

Pin3, Q06449 = target: T13, Pin3, Q06449; conditions: median of control spots 2171
T13 sequence (Q06449 53-122, looked up): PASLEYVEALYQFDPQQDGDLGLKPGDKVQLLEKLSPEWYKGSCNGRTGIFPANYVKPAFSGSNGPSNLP

Cyk3, Q07533 = target: T14, Cyk3, Q07533; conditions: median of control spots 1451
T14 sequence (Q07533 1-83, looked up): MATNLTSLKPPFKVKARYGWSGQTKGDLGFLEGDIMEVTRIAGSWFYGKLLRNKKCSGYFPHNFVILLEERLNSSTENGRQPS

Rvs167, P39743 = conditions: median of control spots 2707
Hse1, P38753 = target: T15, Hse1, P38753; conditions: median of control spots 1727
T15 sequence (P38753 208-285, looked up): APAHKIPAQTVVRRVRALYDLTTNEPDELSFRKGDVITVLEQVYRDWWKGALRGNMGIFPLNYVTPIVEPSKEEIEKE

Fus1, P11710 = target: T16, Fus1, P11710; conditions: median of control spots 1200
T16 sequence (P11710 432-512, looked up): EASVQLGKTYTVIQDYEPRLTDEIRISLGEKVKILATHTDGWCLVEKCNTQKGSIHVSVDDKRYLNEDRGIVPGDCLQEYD

Lsb4, P32793 = target: T17, Lsb4, P32793; conditions: median of control spots 397
T17 sequence (P32793 402-468, looked up): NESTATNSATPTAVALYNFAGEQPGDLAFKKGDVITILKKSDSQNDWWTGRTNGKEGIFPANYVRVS

Nbp2, Q12163 = target: T18, Nbp2, Q12163; conditions: median of control spots 357
T18 sequence (Q12163 103-180, looked up): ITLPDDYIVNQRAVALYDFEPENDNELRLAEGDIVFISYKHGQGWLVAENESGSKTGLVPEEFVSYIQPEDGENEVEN

Cdc25, P04821 = target: T19, Cdc25, P04821; conditions: median of control spots 969
T19 sequence (P04821 50-136, looked up): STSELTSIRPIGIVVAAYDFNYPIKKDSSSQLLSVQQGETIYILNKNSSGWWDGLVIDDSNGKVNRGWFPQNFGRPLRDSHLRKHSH

Abp1, P15891 = target: T20, Abp1, P15891; conditions: median of control spots 935
T20 sequence (P15891 535-592, looked up): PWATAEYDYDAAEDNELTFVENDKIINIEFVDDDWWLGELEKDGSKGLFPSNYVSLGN

GST = conditions: median of control spots 978
Sla1-2, P32790 = target: T21, Sla1-2, P32790; conditions: median of control spots 712
T21 sequence (P32790 60-140, looked up): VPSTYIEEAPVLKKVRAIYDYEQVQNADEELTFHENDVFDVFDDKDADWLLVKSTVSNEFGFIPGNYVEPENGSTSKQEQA

Bem1-2, P29366 = conditions: median of control spots 4347
Chain of Bem1-2, P29366 (P29366 139-227): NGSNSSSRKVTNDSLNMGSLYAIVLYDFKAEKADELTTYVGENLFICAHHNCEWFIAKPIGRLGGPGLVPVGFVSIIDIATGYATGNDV

Chain of Rvs167, P39743 (P39743 419-482): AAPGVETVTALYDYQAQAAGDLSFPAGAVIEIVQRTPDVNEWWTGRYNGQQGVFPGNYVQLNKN
Chain of Sho1, P40073 (P40073 287-367): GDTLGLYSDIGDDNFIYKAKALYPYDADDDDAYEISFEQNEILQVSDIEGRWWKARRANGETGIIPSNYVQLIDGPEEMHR
Chain of Bem1-1, P29366 (P29366 55-141): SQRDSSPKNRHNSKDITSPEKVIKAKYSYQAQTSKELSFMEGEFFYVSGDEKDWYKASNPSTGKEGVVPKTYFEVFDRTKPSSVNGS

Binder	SPOT intensity (Bem1-1, P29366)	SPOT intensity (Lsb3, P43603)	SPOT intensity (Sho1, P40073)	SPOT intensity (Bud14, P27637)	SPOT intensity (Myo3, P36006)	SPOT intensity (Sla1-3, P32790)	SPOT intensity (Bbc1, P47068)	SPOT intensity (Hof1, Q05080)	SPOT intensity (Myo5, Q04439)	SPOT intensity (Lsb1, P53281)	SPOT intensity (Pex13, P80667)	SPOT intensity (Bzz1-2, P38822)	SPOT intensity (Boi2, P39969)	SPOT intensity (Bzz1-1, P38822)	SPOT intensity (Boi1, P38041)	SPOT intensity (Pin3, Q06449)	SPOT intensity (Cyk3, Q07533)	SPOT intensity (Rvs167, P39743)	SPOT intensity (Hse1, P38753)	SPOT intensity (Fus1, P11710)	other results
DKSRPPRPPPKPLHL	0	216	155	1	160	0	5	0	44	4	144	1	0	36	0	0	0	0	36	0	SPOT intensity (Lsb4, P32793): 177; SPOT intensity (Nbp2, Q12163): 0; SPOT intensity (Cdc25, P04821): 0; SPOT intensity (Abp1, P15891): 675; SPOT intensity (GST): 0; SPOT intensity (Sla1-2, P32790): 0; SPOT intensity (Bem1-2, P29366): 57
KDKSRPPRPPPKPLH	0	162	202	0	104	1	4	0	10	7	8	0	0	50	2	0	0	0	20	0	SPOT intensity (Lsb4, P32793): 114; SPOT intensity (Nbp2, Q12163): 2; SPOT intensity (Cdc25, P04821): 2; SPOT intensity (Abp1, P15891): 339; SPOT intensity (GST): 0; SPOT intensity (Sla1-2, P32790): 0; SPOT intensity (Bem1-2, P29366): 0
RPPRPPPKPLHLRTE	4	306	780	0	121	43	15	3	33	266	479	38	3	30	0	5	0	12	539	0	SPOT intensity (Lsb4, P32793): 201; SPOT intensity (Nbp2, Q12163): 86; SPOT intensity (Cdc25, P04821): 0; SPOT intensity (Abp1, P15891): 692; SPOT intensity (GST): 0; SPOT intensity (Sla1-2, P32790): 1; SPOT intensity (Bem1-2, P29366): 458
ALKQKKIPPPFKPHL	0	0	0	0	0	0	0	0	0	0	0	0	0	0	0	0	0	0	0	0	SPOT intensity (Lsb4, P32793): 0; SPOT intensity (Nbp2, Q12163): 0; SPOT intensity (Cdc25, P04821): 0; SPOT intensity (Abp1, P15891): 42; SPOT intensity (GST): 0; SPOT intensity (Sla1-2, P32790): 0; SPOT intensity (Bem1-2, P29366): 0
